We go through two substances from article PMC7418779.

The test has as its target human platelet actin (non-muscle actin), used as monomeric ATP-G-actin or as pre-formed F-actin (human) (UniProt P60709). Briefly: co-sedimentation.

As usually defined, the Kd is a measure of binding affinity in units of concentration. Read a low Kd as a tighter complex. For “FLAG-tagged SHTN1L lacking CCD-I (1L-ΔCCD-I), purified (domain or fragment)”, the Kd amounted to 21.9 nM.
The substance “FLAG-tagged SHTN1L, full length, purified (from UniProt Q8K2Q9 1-631) (natural protein)” gave a Kd of 164 nM and a percent remaining in supernatant (not pelleted with F-actin) of 50%.
